The subject of series [1] is RFL79 (Rf1) (Triticum aestivum (accession R197 for the cloned gene; source of the REMSA construct not stated)). Description: EMSA. The settings on record: apparent Kd; protein mostly aggregated; 1 nM probe; Binding buffer 1x THE (34 mM Tris, 66 mM HEPES, 0.1 mM EDTA, pH 8), 0.2 M NaCl, 5 mM DTT, 5 mg/mL heparin, 0.1 mg/mL BSA, RNaseOUT (10 uL) + 5 uL protein in ….
The subject of series [2] is RFL29a (Rf3) (Triticum aestivum (accession R0934F for the cloned gene; source of the REMSA construct not stated)). The experiment in a line: EMSA. The conditions noted are these: apparent Kd; protein mostly aggregated; 1 nM probe; Binding buffer 1x THE (34 mM Tris, 66 mM HEPES, 0.1 mM EDTA, pH 8), 0.2 M NaCl, 5 mM DTT, 5 mg/mL heparin, 0.1 mg/mL BSA, RNaseOUT (10 uL) + 5 uL protein in …. On the technique in general: A gel shift assay detects complexes by their altered migration in electrophoresis.

With “CUGUAAAUCAAGAAUUCCUCGAAGA [BS RFL79 (orf279)]”, the Kd in series [1] was 1000 nM.

On to “CUUCACCUGUGCACUUAUUUAUGUAU [BS RFL29a (orf279)]”, for which, in series [2], the Kd came out at 1000 nM.

These data come from article PMC7884431.
